Experiments:
Complement C1q = Complement C1q (Homo sapiens?) (UniProt P02745+P02746+P02747); assay: filter; details: MgPBS 37C
[1] = target: Complement C5 (Homo sapiens) (UniProt P01031+P01031); assay: filter; details: 2'-F pyrimidines

Sequence of Complement C1q (Homo sapiens?) (P02745 23-245, chain 1 of 3): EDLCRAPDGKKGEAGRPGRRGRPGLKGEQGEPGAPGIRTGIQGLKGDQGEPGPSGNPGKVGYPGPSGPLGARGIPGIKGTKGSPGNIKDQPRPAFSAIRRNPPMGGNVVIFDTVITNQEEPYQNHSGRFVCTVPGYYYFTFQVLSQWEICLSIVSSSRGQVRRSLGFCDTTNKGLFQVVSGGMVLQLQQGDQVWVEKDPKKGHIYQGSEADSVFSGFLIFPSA
Sequence of Complement C1q (Homo sapiens?) (P02746 28-253, chain 2 of 3): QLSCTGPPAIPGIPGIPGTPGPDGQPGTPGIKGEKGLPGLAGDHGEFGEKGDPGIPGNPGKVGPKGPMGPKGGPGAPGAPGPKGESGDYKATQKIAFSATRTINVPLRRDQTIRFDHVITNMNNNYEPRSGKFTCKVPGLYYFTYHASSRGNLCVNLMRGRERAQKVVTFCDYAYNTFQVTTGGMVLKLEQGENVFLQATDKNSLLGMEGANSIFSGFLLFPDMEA
Sequence of Complement C1q (Homo sapiens?) (P02747 29-245, chain 3 of 3): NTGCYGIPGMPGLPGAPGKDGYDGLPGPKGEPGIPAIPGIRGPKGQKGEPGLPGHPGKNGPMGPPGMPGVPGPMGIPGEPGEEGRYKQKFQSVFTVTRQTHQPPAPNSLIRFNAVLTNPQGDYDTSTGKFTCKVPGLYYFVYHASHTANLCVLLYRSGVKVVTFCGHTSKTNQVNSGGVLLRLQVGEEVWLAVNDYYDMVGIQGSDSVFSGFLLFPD

“GGGAGGACGAUGCGGNNNNNNNNNNNNNNNNNNNNNNNNNNNNNNCAGACGACUCGCCCGA [random 30N7 2'-F RNA pool]” gave a Kd (Complement C1q; 2'-F pyrimidines) of 2300 nM and a Kd ([1]; random pool, likely should be larger) greater than 1 nM.
In the case of “GGGAGGACGAUGCGGUGUUCAGCAUUCAGNAUCUUCACGUGUCGUCAGACGACUCGCCCGA [G3]”, the Kd ([1]; MgPBS 37C) is reported as 55 nM.
“GGGAGGACGAUGCGGNNNNNNNNNNNNNNNNNNNNNNNNNNNNNNNNNNNNNNNNNNNNNNNNNNCAGACGACUCGCCCGA [random 50N7 2'-NH2 RNA pool]” was tested, and the Kd (Complement C1q; 2'-NH2 pyrimidines) was 2300 nM.

Reference: patent US20030078221
